Test results as given in US20140341881A1.
Residue numbers refer to the chain shown, from its start.

T1: human kallikrein 14 (hK14) (human) (UniProt Q9P0G3)
T1 sequence (looked up): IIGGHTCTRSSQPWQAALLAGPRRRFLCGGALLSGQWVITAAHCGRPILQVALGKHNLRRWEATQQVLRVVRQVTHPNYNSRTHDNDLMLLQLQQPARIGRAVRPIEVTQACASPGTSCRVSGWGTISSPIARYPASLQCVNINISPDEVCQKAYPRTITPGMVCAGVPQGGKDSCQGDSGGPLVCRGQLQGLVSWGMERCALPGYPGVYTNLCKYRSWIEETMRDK

B1: rACTWT (recombinant wild type alpha-1-antichymotrypsin) (protein, human)
chain: HHHHHHHPNSPLDEENLTQENQDRGTHVDLGLASANVDFAFSLYKQLVLKAPDKNVIFSPLSISTALAFLSLGAHNTTLTEILKGLKFNLTETSEAEIHQSFQHLLRTLNQSSDELQLSMGNAMFVKEQLSLLDRFTEDAKRLYGSEAFATDFQDSAAAKKLINDYVKNGTRGKITDLIKDLDSQTMMVLVNYIFFKAKWEMPFDPQDTHQSRFYLSKKKWVMVPMMSLHHLTIPYFRDEELSCTVVELKYTGNASALFILPDQDKMEEVEAMLLPETLKRWRDSLEFREIGELYLPKFSISRDYNLNDILLQLGIEEAFTSKADLSGITGARNLAVSQVVHKAVLDVFEEGTEASAATAVKITLLSALVETRTIVRFNRPFLMIIVPTDTQNIFFMSKVTNPKQA
B2: ACTE8, P01011 24-423 (protein)
chain: MRGSHHHHHHSRHPNSPLDEENLTQENQDRGTHVDLGLASANVDFAFSLYKQLVLKAPDKNVIFSPLSISTALAFLSLGAHNTTLTEILKGLKFNLTETSEAEIHQSFQHLLRTLNQSSDELQLSMGNAMFVKEQLSLLDRFTEDAKRLYGSEAFATDFQDSAAAKKLINDYVKNGTRGKITDLIKDLDSQTMMVLVNYIFFKAKWEMPFDPQDTHQSRFYLSKKKWVMVPMMSLHHLTIPYFRDEELSCTVVELKYTGNASALFILPDQDKMEEVEAMLLPETLKRWRDSLEFREIGELYLPKFSISRDYNLNDILLQLGIEEAFTSKADLSGITGARNLAVSQVVHKAVLDVFEEGTEASAATAVKILQRAILVETRTIVRFNRPFLMIIVPTDTQNIFFMSKVTNPKQA
B3: ACTC11D, P01011 24-423 (protein)
chain: B2 chain with L370T, Q371L, A373Q, I374T, L375N, V376D
B4: ACTG9, P01011 24-423 (protein)
chain: B2 chain with I369T, L370V, Q371D, R372Y, I374A
B5: ACTC11, P01011 24-423 (protein)
chain: B2 chain with L370T, Q371L, A373Q, I374T, L375N
B6: rACTWT (recombinant wild type alpha-1-antichymotrypsin), P01011 24-423 (protein, human)
chain: B1 chain
B7: AATE8, P01009 25-418 (protein, human)
chain: HHHHHHEDPQGDAAQKTDTSHHDQDHPTFNKITPNLAEFAFSLYRQLAHQSNSTNIFFSPVSIATAFAMLSLGTKADTHDEILEGLNFNLTEIPEAQIHEGFQELLRTLNQPDSQLQLTTGNGLFLSEGLKLVDKFLEDVKKLYHSEAFTVNFGDTEEAKKQINDYVEKGTQGKIVDLVKELDRDTVFALVNYIFFKGKWERPFEVKDTEEEDFHVDQVTTVKVPMMKRLGMFNIQHCKKLSSWVLLMKYLGNATAIFFLPDEGKLQHLENELTHDIITKFLENEDRRSASLHLPKLSITGTYDLKSVLGQLGITKVFSNGADLSGVTEEAPLKLSKAVHKAVLTIDEKGTEAAGAMFLEALQRAIPPEVKFNKPFVFLMIEQNTKSPLFMGKVVNPTQK
B8: AATG9, P01009 25-418 (protein, human)
chain: B7 chain with A361T, L362V, Q363D, R364Y
B9: AATC11, P01009 25-418 (protein, human)
chain: B7 chain with L362I, Q363P, A365Q, I366T, P367N
B10: AATG1g, P01009 25-418 (protein, human)
chain: B7 chain with A361G, L362S, Q363L, A365G
B11: AATG1, P01009 25-418 (protein, human)
chain: B7 chain with A361G, L362S, Q363L, A365S

molecular target: T1, human kallikrein 14 (hK14) (human); assay: cell-based or functional assay
Also: test concentration or dose not given here.

Binder	% Inhibition [%]	Percentage inhibition [%]
B1	17	17

molecular target: trypsin (human), P07477; assay: cell-based or functional assay

Binder	% Inhibition [%]	Percentage inhibition [%]
B2	100	100
B3	100	
B4		0
B5	100	
B6	0	0
B7	100	100
B8	0	0
B9	100	
B10	100	
B11	100	
